Experimental data: PMC4323994
Where no end group is shown, it is not given here.

Legend:
Test in all cases: ELISA
[1] = target: HLA-DR molecule, DRB1*0101 (human)
[2] = target: HLA-DR molecule, DRB1*1501 (human)
[3] = target: HLA-DR molecule, DRB1*0701 (human)

IC50 [1] [nM]	IC50 [2] [nM]	IC50 [3] [nM]	Binder
365	–	–	GKQLYNVEATSYALL (also: amino and carboxyl ends blocked) [C3d_(223–237) wild type peptide (sequence overlapping the P28 peptide segment and C3d_(223–246))]
< 2000	85100	< 2000	GKQLYNVEATSYALLALLQLKDFD (also: amino and carboxyl ends blocked) [C3d_(223–246)]
5630	> 100000	2450	QATFMVFQALAQYQKDAP (also: amino and carboxyl ends blocked) [C3d_(269–286)]
